According to patent US8299032B2, “Self-assembling peptide and gel produced from the same” (Menicon Co., Ltd., priority 2005, dated 2012):

Experiments:
Format in all cases: physicochemical
[1] = Visible light transmittance of peptide gel (380 to 780 nm); details: for decreasing ratio of visible light transmittance: after 2 months at room temperature versus before storage; for visible light transmittance (average) after standing: gel allowed to stand at room temperature for 2 months; for Visible Light Transmittance (average, 380 to 780 nm): gel of 0.5% by weight peptide in 0.1 M Tris-HCl (pH 7.5), optical path length 10 mm; for long-term stability of gel (no white turbidity): room temperature, 2 months
Description: In a case where the gel of the present invention is used, for example, as a scaffold for a three-dimensional culture of the cells, it is desired that the used concentration of the self-assembling peptide of the present invention upon gel formation in a medium for cell culture is preferably 0.3% by weight or more, and more preferably 0.5% by weight or more, from the viewpoint of easiness in gel formation, and that the used concentration of the peptide is preferably 5% by weight or less, and more preferably 2% by weight or less, from the viewpoint of easy miscibility with the cells. In addition, in such a case, it is preferable that the gel is transparent, from the viewpoint of easiness in cell observation with a fluorescent microscope or the like. For example, in a gel containing 0.5% by weight of a self-assembling peptide, it is desired that the visible light transmittance which is determined in terms of absorbance at 380 to 780 nm in a cell having an optical path of 10 mm is at least 50%/cm, and it is desired that the visible light transmittance is preferably 70%/cm or more, and more preferably 90% 1 cm or more. Further, it is desired that the visible light transmittance of the gel after allowing it to stand at room temperature for a long period of time, for example, 2 months, is preferably 50%/cm or more, more preferably 70%/cm or more, and even more preferably 90%/cm or more, from the viewpoint of long-term stability of the gel, and that the decreasing ratio (%) of the visible light transmittance (100−(visible light transmittance after storage/visible light transmittance before storage×100)) is preferably 30% or less, more preferably 20% or less, and even more preferably 10% or less. The transparency of the gel can be determined with UV/VIS measurement apparatus as described in Examples set forth below.
Peptide Nos. 1 to 9 synthesized in Production Examples 1 and 2 were dissolved in 0.1 M Tris-HCl (pH 7.5), to prepare a gel composed of a 0.5% by weight peptide solution. The visible light transmittance of the prepared gel within the range of from 380 to 780 nm was determined using a cell having an optical path length of 10 mm and trade name V-550 UV/VIS Spectrometer (manufactured by JASCO).
Therefore, it could be seen that each of Peptide Nos. 1 to 9 mentioned above formed a transparent gel. In addition, of the above gels, the gel comprising each of Peptide Nos. 1, 4, 6, or 7 was allowed to stand at room temperature for 2 months, and the visible light transmittance was determined in the same manner as above. As a result, an average thereof was respectively 88, 87, 91, or 93%/cm, and the decreasing ratio was respectively 9.3, 5.4, 6.2, or 4.1%. In other words, the gel after 2 months passed from the preparation also maintained high visible light transmittance.

[2] = Gel formation, test tube placed up-side-down; set-up: key to Gel Formation: Excellent: those in which the contents did not drop off were evaluated as the gel formation being “excellent”; Poor: those in which the contents dropped off were evaluated as being “poor.”; details: 37° C. for 24 hours; for Gel Formation: peptide 0.5% by weight; for gel formation in neutral aqueous solution (summary of Table 11): neutral aqueous solutions, 0.5% by weight
Protocol: Peptide Nos. 1, 2, 4, 5, 6, 10 and 11 synthesized in Production Examples 1 and 2 were dissolved in each of aqueous solutions listed in Table 11. A 1.5 mL test tube was charged with 1 mL of the resulting peptide-containing aqueous solution. Next, the test tube was allowed to stand at 37° C. for 24 hours.

[3] = Confirmation of beta-sheet structure formation by circular dichroism measurement; details: 3×10^−3 M peptide in 0.1 M Tris-HCl (pH 7.5)
Protocol: The formation of each of the beta (β)-sheet structures of Peptide Nos. 1 to 9 and 12 synthesized in Production Examples 1 and 2 mentioned above was confirmed in accordance with circular dichroism measurement method. Concretely, each of the peptides was dissolved in 0.1 M Tris-HCl (pH 7.5) to prepare a 3×10^−3 M peptide solution. The resulting peptide solution was filled into a quartz cell having an optical path length of 0.5 mm (manufactured by JASCO, trade name: 110J cylindrical cell, volume: 0.04 mL), and the quartz cell was set in trade name J-820K Spectropolarimeter (manufactured by JASCO), and the molar ellipticities at 195 to 260 nm for the peptide solutions were determined in accordance with the circular dichroism measurement method.

[4] = Dynamic viscoelasticity of peptide aqueous solution (storage modulus G′, loss modulus G″); details: 0.5 wt %, acidic aqueous solution (pH 3.5)
Description: In addition, the term “gel” as used herein refers to a viscoelastic substance having both viscous property and elastic property. Concretely, the gel refers to a substance satisfying the formula G′>G″, in a case where the gel is subjected to dynamic viscoelasticity measurement to determine a storage elastic modulus G′ and a loss elastic modulus G″.
The dynamic viscoelasticity can be determined with a dynamic viscoelasticity measurement apparatus as described in Examples set forth below. Concretely, the dynamic viscoelasticity can be determined by placing a sample on an iron plate, compressing the sample with an iron cone, and monitoring a stress applied to a motor rotating the iron cone when the cone is rotated.
The storage elastic modulus G′ and the loss elastic modulus G″ of a 0.5% by weight peptide (Peptide Nos. 1 to 10 mentioned above)-containing aqueous solution were determined with an instrument under the trade name of AR1000 (manufactured by TA Instruments Japan). […] Next, the 0.5% by weight peptide-containing aqueous solution was compressed, and a stress applied to a motor was monitored when the iron cone was rotated, while varying the frequency of the cone within the range of 0.1 to 10 rad/sec.

Sequence | decreasing ratio of visible light transmittance [1] [%] | visible light transmittance (average) after standing [1] [%/cm] | Visible Light Transmittance (average, 380 to 780 nm) [1] [%] | long-term stability of gel (no white turbidity) [1] | Gel Formation ([2]; PBS pH 7.4) | Gel Formation ([2]; Tris-HCl 0.1 M pH 7.5) | gel formation in neutral aqueous solution (summary of Table 11) [2] | also measured
RASARADARASA (Synthetic self-assembling peptide of the invention) [Peptide No. 7, self-assembling peptide of the present invention] | 4.1 | 93 | 97 | stable for a long period of time without becoming white turbid | – | – | – | –
SAEAKAEASAEAKAEA (Synthetic self-assembling peptide of the invention) [Peptide No. 9, self-assembling peptide of the present invention] | – | – | 93 | – | – | – | – | –
RASARADARASARADA (Synthetic self-assembling peptide of the invention) [Peptide No. 1, self-assembling peptide of the present invention] | 9.3 | 88 | 97 | stable for a long period of time without becoming white turbid | Excellent | Excellent | formed into gel in various neutral aqueous solutions | Gel Formation ([2]; D-MEM/F12(1:1) Medium pH 7.5): Excellent; Gel Formation ([2]; Tris-HCl 0.05 M pH 7.5): Excellent; Gel Formation ([2]; Tris-HCl 0.2 M pH 7.5): Excellent; Gel Formation ([2]; Tris-HCl 0.4 M pH 7.5): Excellent; Gel Formation ([2]; Tris-HCl 0.6 M pH 7.5): Excellent; Gel Formation ([2]; Tris-HCl 0.8 M pH 7.5): Excellent; Gel Formation ([2]; Tris-HCl 1 M pH 7.5): Excellent
RASARADARADARASA (Synthetic self-assembling peptide of the invention) [Peptide No. 4, self-assembling peptide of the present invention] | 5.4 | 87 | 92 | stable for a long period of time without becoming white turbid | Excellent | Excellent | formed into gel in various neutral aqueous solutions | Gel Formation ([2]; Tris-HCl 0.05 M pH 7.5): Excellent; Gel Formation ([2]; Tris-HCl 0.2 M pH 7.5): Excellent; Gel Formation ([2]; Tris-HCl 0.4 M pH 7.5): Excellent; Gel Formation ([2]; Tris-HCl 0.6 M pH 7.5): Excellent; Gel Formation ([2]; Tris-HCl 0.8 M pH 7.5): Excellent; Gel Formation ([2]; Tris-HCl 1 M pH 7.5): Excellent
RANARADARANARADA (Synthetic self-assembling peptide of the invention) [Peptide No. 2, self-assembling peptide of the present invention] | – | – | 77 | – | – | Excellent | formed into gel in various neutral aqueous solutions | –
HKHQHDHKHQHDHKHQHD (Synthetic peptide which is not a peptide of the invention) [Peptide No. 12, peptide not having a nonpolar amino acid residue, not a peptide of the present invention] | – | – | – | – | – | – | – | formation of beta (β)-sheet structure in aqueous solution [3]: did not form a beta(β)-sheet structure
RADARADARADARADA [Peptide No. 10, reference compound] | – | – | – | – | Poor | – | did not form into gel in a neutral aqueous solution | gel formation by dynamic viscoelasticity [4]: formed the gel in an acidic aqueous solution
RADARASARASARADA (Synthetic self-assembling peptide of the invention) [Peptide No. 5, self-assembling peptide of the present invention] | – | – | 78 | – | – | Excellent | formed into gel in various neutral aqueous solutions | –
RFDFRFDFRFDFRFDF (Synthetic peptide which is not a peptide of the invention) [compound 11, comparative peptide, which is not self-assembling peptide of the present invention; charge at pH 7.0 is 0, reference compound] | – | – | – | – | Poor | – | did not form into gel in a neutral aqueous solution | –
KASAKAEAKASAKAEA (Synthetic self-assembling peptide of the invention) [Peptide No. 8, self-assembling peptide of the present invention] | – | – | 94 | – | – | – | – | –
RAAARADARAAARADA (Synthetic self-assembling peptide of the invention) [Peptide No. 3, self-assembling peptide of the present invention] | – | – | 91 | – | – | – | – | –
RASARASARASARADA (Synthetic self-assembling peptide of the invention) [Peptide No. 6, self-assembling peptide of the present invention] | 6.2 | 91 | 97 | stable for a long period of time without becoming white turbid | – | Excellent | formed into gel in various neutral aqueous solutions | –
